# Experimental data published in US20070104676A1, “Cosmetic and/or dermatological preparations containing an extract from the seeds of plants of the genus adenanthera” (COGNIS FRANCE S.A., priority 2003, published 2007).
# B1: SBTI: Reference substance (Sigma) in the plasmin inhibition test (protein, UniProt P01070 25-205, looked up)
# Trypsin inhibitor A: DFVLDNEGNPLENGGTYYILSDITAFGGIRAAPTGNERCPLTVVQSRNELDKGIGTIISSPYRIRFIAEGHPLSLKFDSFAVIMLCVGIPTEWSVVEDLPEGPAVKIGENKDAMDGWFRLERVSDDEFNNYKLVFCPQQAEDDKCGDIGISIDHDDGTRRLVVSKNKPLVVQFQKLDKESL
# How the values were obtained:
# pancreas elastase = pancreas elastase (Sus scrofa, UniProt P00772); test: Inhibition of elastase activity; format: biochemical
# Protocol: In order to test the effectiveness of the plant extract in inhibiting the release of elastase, pancreas elastase (a serine protease) was investigated and, as substrate, elastin was marked with a chromogenic synthetic substrate. The system was incubated with the active principles for 30 minutes at room temperature and then, after centrifuging, the optical density of the dye was determined at 410 nm. The extracts were used in a quantity of 0.3% by weight. The results are set out in Table 1 where they are expressed relative to a control as standard (=0%); a1-antitrypsin was used as the standard.
# Human plasmin = biological target: T1, Human plasmin (Homo sapiens, UniProt P00747); test: Inhibition of plasmin activity (quenched fluorescent casein hydrolysis); format: biochemical; details: reference substance
# T1 construct: purchased Sigma
# Protocol: Method: Human plasmin obtained from Sigma was mixed with the extract in a quantity of 0.3% by weight and incubated for a few minutes at 20° C. Natural casein marked with a quenched fluorescence probe (Interchim natural) was then added. The protease-catalyzed hydrolysis degraded the quenching and produced a fluorescence signal. The proportion of hydrolyzed substrate was determined by measuring the increased green fluorescence over a period of 30 minutes. […] The inhibition of enzyme activity was evaluated by comparison with a control and a reference substance SBT1 (Sigma).
# pancreas elastase, sequence (P00772 27-266): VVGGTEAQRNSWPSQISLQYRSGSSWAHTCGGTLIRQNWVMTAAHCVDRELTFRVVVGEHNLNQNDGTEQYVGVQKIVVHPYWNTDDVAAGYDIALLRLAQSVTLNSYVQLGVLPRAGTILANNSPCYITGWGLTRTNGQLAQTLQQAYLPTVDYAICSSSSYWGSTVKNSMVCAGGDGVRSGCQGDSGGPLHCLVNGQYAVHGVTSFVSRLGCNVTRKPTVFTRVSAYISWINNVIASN
# T1 sequence (P00747 581-810 limits assumed): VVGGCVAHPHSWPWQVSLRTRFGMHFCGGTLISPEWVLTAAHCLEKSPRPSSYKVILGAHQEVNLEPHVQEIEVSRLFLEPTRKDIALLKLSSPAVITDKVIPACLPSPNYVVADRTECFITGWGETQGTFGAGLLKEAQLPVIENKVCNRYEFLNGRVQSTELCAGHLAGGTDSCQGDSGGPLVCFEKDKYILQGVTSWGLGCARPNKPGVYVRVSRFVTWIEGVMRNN
# T1 sequence (P00747 97-580 partner limits assumed): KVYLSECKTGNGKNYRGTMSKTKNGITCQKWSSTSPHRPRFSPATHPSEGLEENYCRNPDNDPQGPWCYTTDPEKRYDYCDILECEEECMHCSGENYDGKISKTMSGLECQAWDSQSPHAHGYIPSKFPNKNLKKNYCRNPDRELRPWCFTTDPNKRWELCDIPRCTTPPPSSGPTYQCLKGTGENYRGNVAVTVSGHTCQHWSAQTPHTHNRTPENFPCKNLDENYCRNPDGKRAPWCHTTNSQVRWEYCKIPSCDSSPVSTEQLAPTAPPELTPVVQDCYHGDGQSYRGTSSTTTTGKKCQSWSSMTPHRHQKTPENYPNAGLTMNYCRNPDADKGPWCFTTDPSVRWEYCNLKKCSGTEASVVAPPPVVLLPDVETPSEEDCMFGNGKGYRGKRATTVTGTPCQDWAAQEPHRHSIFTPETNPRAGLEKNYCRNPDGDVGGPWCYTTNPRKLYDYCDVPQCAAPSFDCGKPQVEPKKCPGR
"IC50 (elastase inhibition, standard) (pancreas elastase)","IC50 (plasmin inhibition, standard) (Human plasmin)",Molecule
IC50 = 0.13 mg/ml,–,α1-anti-trypsin: Standard used in the elastase inhibition test
–,0.006%,B1
